This is an account of results in patent US20110015122, “[…] B VIRUS-BINDING POLYPEPTIDES AND METHODS OF USE […]” (published 2011).

What all share (conditions): tags: MBP fusion (pMAL); label: 5'-biotin sense strand (SPR)
In data set [1] the target is ZFPa (synthetic). Put plainly: SPR; HBS-EP, 1:1 with drifting baseline.
Data set [2] deals with ZFPq (synthetic). In words: SPR; HBS-EP; EMSA na.
Data set [3] deals with ZFPf (synthetic). In words: SPR; HBS-EP, 1:1 Langmuir. Background: SPR reads the build-up and loss of mass on a sensor chip optically.
ZFPf (synthetic), sequence (chain, as listed by the source): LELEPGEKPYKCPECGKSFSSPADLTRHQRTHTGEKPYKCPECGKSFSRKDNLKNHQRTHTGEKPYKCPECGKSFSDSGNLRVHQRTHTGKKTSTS
In data set [4] the target is ZFPc (synthetic). Put plainly: SPR; HBS-EP, 1:1 with drifting baseline.
ZFPc (synthetic), sequence (chain, as listed by the source): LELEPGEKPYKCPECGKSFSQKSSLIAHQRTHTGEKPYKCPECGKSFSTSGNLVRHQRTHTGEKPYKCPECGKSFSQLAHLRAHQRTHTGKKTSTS
For data set [5], the target named is ZFPu (synthetic). In words: SPR; HBS-EP; EMSA na.
ZFPu (synthetic), sequence (chain, as listed by the source): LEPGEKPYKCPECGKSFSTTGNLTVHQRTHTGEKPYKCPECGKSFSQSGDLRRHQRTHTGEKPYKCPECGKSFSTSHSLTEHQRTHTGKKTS
The target of data set [6] is ZFPr (synthetic). Put plainly: SPR; HBS-EP; EMSA na.
ZFPr (synthetic), sequence (chain, as listed by the source): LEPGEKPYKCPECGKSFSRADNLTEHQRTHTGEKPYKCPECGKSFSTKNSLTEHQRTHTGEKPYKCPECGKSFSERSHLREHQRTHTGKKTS
For data set [7], the target named is ZFPt (synthetic). Put plainly: SPR; HBS-EP; EMSA na.
ZFPt (synthetic), sequence (chain, as listed by the source): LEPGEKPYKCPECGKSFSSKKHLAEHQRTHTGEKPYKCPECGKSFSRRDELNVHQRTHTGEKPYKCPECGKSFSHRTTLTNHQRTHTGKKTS
Data set [8] concerns the target ZFPe (synthetic). Put plainly: SPR; HBS-EP; text elsewhere calls ZFPe the picomolar binder.
The target in data set [9] is ZFPb (synthetic). Put plainly: SPR; HBS-EP, 1:1 with drifting baseline.
ZFPb (synthetic), sequence (chain, as listed by the source): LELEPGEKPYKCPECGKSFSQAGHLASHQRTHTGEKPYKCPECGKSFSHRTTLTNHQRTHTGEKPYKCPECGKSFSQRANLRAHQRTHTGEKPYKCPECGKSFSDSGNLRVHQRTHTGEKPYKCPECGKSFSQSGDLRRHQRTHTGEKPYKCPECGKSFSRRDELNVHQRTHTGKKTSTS
The target of data set [10] is ZFPd (synthetic). In words: SPR; HBS-EP; text elsewhere calls ZFPe the picomolar binder.
ZFPd (synthetic), sequence (chain, as listed by the source): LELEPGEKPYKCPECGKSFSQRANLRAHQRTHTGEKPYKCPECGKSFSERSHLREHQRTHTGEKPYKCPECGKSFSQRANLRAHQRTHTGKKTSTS
Data set [11] addresses ZFPk (synthetic). In words: SPR; HBS-EP.
The target of data set [12] is ZFPn (synthetic). Put plainly: SPR; HBS-EP.
ZFPn (synthetic), sequence (chain, as listed by the source): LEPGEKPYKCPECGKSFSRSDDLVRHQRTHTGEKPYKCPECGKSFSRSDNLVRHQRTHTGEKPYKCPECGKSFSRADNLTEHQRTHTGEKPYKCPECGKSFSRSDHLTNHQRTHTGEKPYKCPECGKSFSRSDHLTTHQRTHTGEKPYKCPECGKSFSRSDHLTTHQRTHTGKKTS

ZFPk (synthetic), sequence (chain, as listed by the source): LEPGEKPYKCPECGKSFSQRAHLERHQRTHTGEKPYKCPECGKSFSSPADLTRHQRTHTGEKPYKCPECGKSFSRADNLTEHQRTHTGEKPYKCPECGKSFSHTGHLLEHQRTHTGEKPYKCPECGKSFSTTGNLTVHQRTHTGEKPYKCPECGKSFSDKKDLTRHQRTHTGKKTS
ZFPe (synthetic), sequence (chain, as listed by the source): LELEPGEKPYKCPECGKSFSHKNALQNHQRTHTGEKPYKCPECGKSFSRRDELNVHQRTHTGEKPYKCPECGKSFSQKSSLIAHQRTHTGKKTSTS
ZFPa (synthetic), sequence (chain, as listed by the source): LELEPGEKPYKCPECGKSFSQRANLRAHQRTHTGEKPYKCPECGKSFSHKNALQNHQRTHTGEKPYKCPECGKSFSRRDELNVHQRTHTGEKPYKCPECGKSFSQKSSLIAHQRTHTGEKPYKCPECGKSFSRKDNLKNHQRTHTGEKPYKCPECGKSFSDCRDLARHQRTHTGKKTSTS
ZFPq (synthetic), sequence (chain, as listed by the source): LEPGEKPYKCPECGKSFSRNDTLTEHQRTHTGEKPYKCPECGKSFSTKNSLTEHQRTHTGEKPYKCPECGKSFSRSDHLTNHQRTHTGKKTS

B1: ZFPa target oligo (dsDNA)
DNA 1: AGTACTGCCAAGATAATGATTAAAAGTACT
DNA 2: AGTACTTTTAATCATTATCTTGGCAGTACT
As to B1, the Kd (as a rule, the constant that tells how readily two partners part at equilibrium) in data set [1] is 12.3 nM.

B2: ZFPq target oligo (dsDNA)
DNA 1: AGTACTAGGCCTCCGAGTACT
DNA 2: AGTACTCGGAGGCCTAGTACT
As for B2, binding in data set [2] was put at a Kd of 1290 nM.

B3: ZFPf target oligo (dsDNA)
DNA 1: AGTACTAACAAGACAAGTACT
DNA 2: AGTACTTGTCTTGTTAGTACT
Consider B3, for which the Kd in data set [3] stood at 185000 nM.

B4: ZFPc target oligo (dsDNA)
DNA 1: AGTACTAGAGATATAAGTACT
DNA 2: AGTACTTATATCTCTAGTACT
Take B4: binding in data set [4] was characterised by a dissociation constant (Kd) of 99 nM.

B5: ZFPu target oligo (dsDNA)
DNA 1: AGTACTCCAGCAAATAGTACT
DNA 2: AGTACTATTTGCTGGAGTACT
B5: in data set [5], the Kd was 2470 nM.

B6: ZFPr target oligo (dsDNA)
DNA 1: AGTACTAGCCCTCAGAGTACT
DNA 2: AGTACTCTGAGGGCTAGTACT
With B6, in [6], the equilibrium dissociation constant (Kd) was found to be 502 nM.

B7: ZFPt target oligo (dsDNA)
DNA 1: AGTACTAGTATGCCCAGTACT
DNA 2: AGTACTGGGCATACTAGTACT
Take B7: the Kd in data set [7] came to 1070 nM.

B8: ZFPe target oligo (dsDNA)
DNA 1: AGTACTATAATGATTAGTACT
DNA 2: AGTACTAATCATTATAGTACT
Regarding B8, the Kd in data set [8] was found to be 67.1 nM.

B9: ZFPb target oligo (dsDNA)
DNA 1: AGTACTATGGCAAACAAAAGTTGAAGTACT
DNA 2: AGTACTTCAACTTTTGTTTGCCATAGTACT
Take B9: the Kd in data set [9] amounted to 40.2 nM.

B10: ZFPd target oligo (dsDNA)
DNA 1: AGTACTAAAAGCAAAAGTACT
DNA 2: AGTACTTTTGCTTTTAGTACT
Consider B10, for which the Kd in data set [10] was determined as 0.471 nM.

B11: ZFPk target oligo (dsDNA)
DNA 1: AGTACTACCAATCGCCAGACAGGAAGTACT
DNA 2: AGTACTTCCTGTCTGGCGATTGGTAGTACT
With B11, the Kd in data set [11] turned out to be 5.14 nM.

B12: ZFPn target oligo (dsDNA)
DNA 1: AGTACTTGGTGGAGGCAGGAGGCGAGTACT
DNA 2: AGTACTCGCCTCCTGCCTCCACCAAGTACT
In [12], B12 had a Kd of 69.4 nM.
